What was measured:
[1] = biological target: T1, canine IL-31 protein (Canine_IL31) (canine); assay: cell-based or functional assay
T1 chain: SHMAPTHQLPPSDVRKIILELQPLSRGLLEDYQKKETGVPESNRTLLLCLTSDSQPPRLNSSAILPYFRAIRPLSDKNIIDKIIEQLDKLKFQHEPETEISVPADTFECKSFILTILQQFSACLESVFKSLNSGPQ

[2] = biological target: T2, canine IL-31 protein (Canine_IL31); assay: Biacore
T2 chain: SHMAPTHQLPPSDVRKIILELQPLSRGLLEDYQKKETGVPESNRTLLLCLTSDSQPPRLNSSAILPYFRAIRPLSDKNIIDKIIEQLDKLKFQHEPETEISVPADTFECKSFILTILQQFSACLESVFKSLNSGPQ

[3] = biological target: T1, canine IL-31 protein (Canine_IL31); assay: Biacore, canine IL-31 surface, single antibody concentration (FIG. 4)
Experimental: (§1) The affinity with which candidate mAbs bind canine and feline IL-31 was determined using surface plasmon resonance (SPR) on a Biacore system (Biocore Life Sciences (GE Healthcare), Uppsala, Sweden). To avoid affinity differences associated with differential surface preparation that can occur when immobilizing antibodies to surfaces; a strategy was employed where IL-31 was directly conjugated to the surface. Immobilization was obtained by amine coupling 5 μg/mL IL-31 using N-hydroxysuccinimide (NHS)/1-Ethyl-3-(3-dimethylaminopropyl) carbodiimide (EDC) chemistry. Chips were quenched with ethanolamine and the affinity with which all candidate mAbs bound to the immobilized IL-31 was evaluated. All curves were fit to a 1:1 model. […] Results for affinity measurements are described herein.
For the indirect ELISA method, antibody binding to wildtype and feline IL-31 15H05 mutant proteins was assessed. All nine canine monoclonal antibodies (ZIL1, ZIL8, ZIL8, ZIL11, ZIL69, ZIL94, ZIL154, ZIL159, and ZIL171) were capable of binding to wildtype feline IL-31 and binding was impacted by mutations in the mAb 15H05 epitope region confirming the correct binding phenotype determined during the initial screening used to identify them. […]

[4] = biological target: T1, canine IL-31 protein (Canine_IL31); assay: SPR (Biacore), FIG. 2 Section B
Experimental: as §1
FIG. 2 details the affinity of antibodies with CDRs derived from mouse origin using biacore. […] These observations confirm the correct sequence for both mouse antibodies and indicate conversion to the chimeric form results in antibodies with equivalent or higher affinity when compared to the mouse parent with the exception of the mouse:feline 15H05 chimera which lost some affinity to both IL-31 species as a result of its conversion to the chimeric form. […]

B1: 15H05 mouse: canine chimera (antibody)
heavy: QVQLQQSAAELARPGASVKMSCKTSGYTFTSYTIHWIKQRPGQGLEWIGNINPTSGYTENNQRFKDKTTLTVDRSSNTAYLQLHSLTSEDSAVYFCARWGFKYDGEWSFDVWGAGTTVTVSSASTTAPSVFPLAPSCGSTSGSTVALACLVSGYFPEPVTVSWNSGSLTSGVHTFPSVLQSSGLYSLSSMVTVPSSRWPSETFTCNVAHPASKTKVDKPVPKRENGRVPRPPDCPKCPAPEMLGGPSVFIFPPKPKDTLLIARTPEVTCVVVDLDPEDPEVQISWFVDGKQMQTAKTQPREEQFNGTYRVVSVLPIGHQDWLKGKQFTCKVNNKALPSPIERTISKARGQAHQPSVYVLPPSREELSKNTVSLTCLIKDFFPPDIDVEWQSNGQQEPESKYRTTPPQLDEDGSYFLYSKLSVDKSRWQRGDTFICAVMHEALHNHYTQESLSHSPGK
light: DIQMNQSPSSLSASLGDTITVTCRASQGISIWLSWYQQKPGNIPKVLINKASNLHIGVPPRFSGSGSGTHFTLTITSLQPEDIATYYCLQSQTYPLTFGGGTKLEINRNDAQPAVYLFQPSPDQLHTGSASVVCLLNSFYPKDINVKWKVDGVIQDTGIQESVTEQDKDSTYSLSSTLTMSSTEYLSHELYSCEITHKSLPSTLIKSFQRSEC
IC50 against canine IL-31 (pSTAT3 assay; cell type not clear) [1]: 12.5 µg/ml

B2: mouse: feline 15H05 chimera (antibody)
heavy: QVQLQQSAAELARPGASVKMSCKTSGYTFTSYTIHWIKQRPGQGLEWIGNINPTSGYTENNQRFKDKTTLTVDRSSNTAYLQLHSLTSEDSAVYFCARWGFKYDGEWSFDVWGAGTTVTVSSASTTAPSVFPLAPSCGTTSGATVALACLVLGYFPEPVTVSWNSGALTSGVHTFPAVLQASGLYSLSSMVTVPSSRWLSDTFTCNVAHPPSNTKVDKTVRKTDHPPGPKPCDCPKCPPPEAAGAPSIFIFPPKPKDTLSISRTPEVTCLVVDLGPDDSDVQITWFVDNTQVYTAKTSPREEQFNSTYRVVSVLPILHQDWLKGKEFKCKVNSKSLPSPIERTISKAKGQPHEPQVYVLPPAQEELSRNKVSVTCLIKSFHPPDIAVEWEITGQPEPENNYRTTPPQLDSDGTYFVYSKLSVDRSHWQRGNTYTCSVSHEALHSHHTQKSLTQSPGK
light: DIQMNQSPSSLSASLGDTITVTCRASQGISIWLSWYQQKPGNIPKVLINKASNLHIGVPPRFSGSGSGTHFTLTITSLQPEDIATYYCLQSQTYPLTFGGGTKLEINRSDAQPSVFLFQPSLDELHTGSASIVCILNDFYPKEVNVKWKVDGVVQNKGIQESTTEQNSKDSTYSLSSTLTMSSTEYQSHEKFSCEVTHKSLASTLVKSFQRSECQRE
IC50 against canine IL-31 (pSTAT3 assay; cell type not clear) [1]: 28.6 µg/ml
Kd [2]: 0.0129 nM

B3: ZIL154 (antibody, V domains shown)
VH: EVHLVESGGDLVKPWGSLRLSCVASGFTFSDRGMSWVRQSPGKGLQWVAYIRYDGSRTDYADAVEGRFTISRDNAKNTLYLQMNSLRAEDTAVYYCARWDGSSFDYWGQGTLVTVSS
VL: DIVVTQTPLSLSVSPGETASFSCKASQSLLHSDGNTYLDWFRQKPGQSPQRLIYKVSNRDPGVPDRFSGSGSGTDFTLRISGVEADDAGLYYCMQAIHFPLTFGAGTKVELKR
notes: Recombinant fully canine IgG (65_1), HEK 293; also called CAN-ZIL154
binding result [3]: no binding

B4: Feline 11E12 1.2 (antibody, V domains shown)
VH: QVLLVQSGAEVKKPGASVKIFCKASGYSFTYYDINWLRQAPEQGLEWMGWIFPGDGGTKYNETFKGRLTLTADTSTNTVYMELSSLRSADTAMYYCARGGTSVIRDAMDYWGQGALVTVSS
VL: EVVLTQSSAFLSRTLKEKATITCRASESVDNYGISFMHWYQQKPNQAPKLLVKRASNLESGAPSRFSGSGSGTDFTLTISSPEPEDAATYYCQQSNKDPLTFGQGT
notes: also called felinized 11E12 1.2
binding result [4]: no binding

— patent publication US20190284272A1 (published 2019)
